Laboratory results as given in patent US20200399389A1 (PHANES THERAPEUTICS, published 2020).

T1: HIS-tagged human CD73 (huCD73-HIS) (human, UniProt P21589 27-547)
T1 sequence: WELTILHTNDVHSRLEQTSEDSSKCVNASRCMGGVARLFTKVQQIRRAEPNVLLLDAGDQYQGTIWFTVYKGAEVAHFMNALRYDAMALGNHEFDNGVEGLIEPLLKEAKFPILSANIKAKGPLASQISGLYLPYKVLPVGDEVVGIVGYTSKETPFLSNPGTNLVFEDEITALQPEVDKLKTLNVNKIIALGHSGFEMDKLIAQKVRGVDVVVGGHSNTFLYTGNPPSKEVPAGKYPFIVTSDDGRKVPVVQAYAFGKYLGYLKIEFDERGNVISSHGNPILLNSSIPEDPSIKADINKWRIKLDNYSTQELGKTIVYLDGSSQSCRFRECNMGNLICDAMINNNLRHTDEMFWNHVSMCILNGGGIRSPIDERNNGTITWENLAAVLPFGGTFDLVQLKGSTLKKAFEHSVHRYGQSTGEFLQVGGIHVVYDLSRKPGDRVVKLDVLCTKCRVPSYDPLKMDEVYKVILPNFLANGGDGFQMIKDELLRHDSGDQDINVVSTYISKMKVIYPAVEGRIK

T2: human CD73 expressed on the surface of cells (human, UniProt P21589 27-549)
T2 sequence: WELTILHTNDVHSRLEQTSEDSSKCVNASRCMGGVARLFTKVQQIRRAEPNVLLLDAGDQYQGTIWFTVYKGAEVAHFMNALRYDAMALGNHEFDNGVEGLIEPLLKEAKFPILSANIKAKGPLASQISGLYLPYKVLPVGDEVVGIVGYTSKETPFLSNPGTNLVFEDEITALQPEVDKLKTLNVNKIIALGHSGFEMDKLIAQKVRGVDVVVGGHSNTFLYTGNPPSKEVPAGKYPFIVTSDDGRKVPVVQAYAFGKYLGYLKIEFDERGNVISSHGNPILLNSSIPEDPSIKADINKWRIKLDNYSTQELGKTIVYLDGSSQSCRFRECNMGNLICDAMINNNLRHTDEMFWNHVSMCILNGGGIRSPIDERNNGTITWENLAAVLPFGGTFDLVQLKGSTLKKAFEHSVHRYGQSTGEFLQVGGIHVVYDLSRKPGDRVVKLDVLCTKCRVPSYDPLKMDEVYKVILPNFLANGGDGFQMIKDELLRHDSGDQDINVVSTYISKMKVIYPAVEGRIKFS


These binders were tested against T1, HIS-tagged human CD73 (huCD73-HIS) (assay: cell-based or functional assay).

| IC50 (nM), huCD73 enzymatic assay in solution [nM] | Binder |
| --- | --- |
| 2.09 | 60A9-H3L3 (antibody, V domains shown) VH: EVQLVESGGGLVQPGQSLKLSCKASGYAFSSYWMNWVRQAPGKGLEWIGQIYPGDGDTYYNPSVKGRATLSADKSKNTAYLQLNNLRAEDTAVYYCAREAIYYGNYVFTYWGQGTLVTVSS VL: DIQMTQSPSLLSASLGDRVTITCKSSQSLLNSSNQKNYLAWYQQKPGQSPKLLVYFASTRDSGVPDRFSGSGSGTDFTLTISSLEPEDFATYYCQQHYSTPLTFGGGTKLEIK |

What follows are binders tested against T2, human CD73 expressed on the surface of … (assay: cell-based or functional assay).

| IC50 (nM), cell-based CD73 activity assay (A375 cells) [nM] | Binder |
| --- | --- |
| 49.6 | 39G8-H1L3 (antibody, V domains shown) VH: QVQLVQSGAEVKKPGASVKVSCKASGYTFTSYWMHWVRQAPGQGLEWIGEIDPSGGYTNYAQKFQGRSTLTVDKSISTAYMELSRLRSDDTAVYYCARNYYYGSSGTMDYWGQGTLVTVSS VL: DIVMTQSPDSLAVSLGERATMSCKSSQSLLNSSNQKNYLAWYQQKPGQPPKLLVYFASTRESGVPDRFSGSGSGTDFTLTISSLQAEDVAVYFCQQHYSTPYTFGGGTKVEIK |
| 66.3 | 39G8-H2L3 (antibody, V domains shown) VH: QVQLVQSGAEVKKPGASVKVSCKASGYTFTSYWMHWVRQAPGQGLEWIGEIDPSGGYTNYAQKFQGRSTLTVDTSISTAYMELSRLRSDDTAVYYCARNYYYGSSGTMDYWGQGTLVTVSS VL: DIVMTQSPDSLAVSLGERATMSCKSSQSLLNSSNQKNYLAWYQQKPGQPPKLLVYFASTRESGVPDRFSGSGSGTDFTLTISSLQAEDVAVYFCQQHYSTPYTFGGGTKVEIK |
| 56.1 | 39G8-H3L3 (antibody, V domains shown) VH: QVQLVQSGAEVKKPGASVKVSCKASGYTFTSYWMHWVRQAPGQGLEWIGEIDPSGGYTNYNQKFQGRSTLTVDKSISTAYMELSRLRSDDTAVYYCARNYYYGSSGTMDYWGQGTLVTVSS VL: DIVMTQSPDSLAVSLGERATMSCKSSQSLLNSSNQKNYLAWYQQKPGQPPKLLVYFASTRESGVPDRFSGSGSGTDFTLTISSLQAEDVAVYFCQQHYSTPYTFGGGTKVEIK |
| 65.7 | 60A9-H3L3 (antibody, V domains shown) VH: EVQLVESGGGLVQPGQSLKLSCKASGYAFSSYWMNWVRQAPGKGLEWIGQIYPGDGDTYYNPSVKGRATLSADKSKNTAYLQLNNLRAEDTAVYYCAREAIYYGNYVFTYWGQGTLVTVSS VL: DIQMTQSPSLLSASLGDRVTITCKSSQSLLNSSNQKNYLAWYQQKPGQSPKLLVYFASTRDSGVPDRFSGSGSGTDFTLTISSLEPEDFATYYCQQHYSTPLTFGGGTKLEIK |
| 30.1 | 60A9-H5L4 (antibody, V domains shown) VH: EVQLVESGGGLVQPGQSLKLSCKASGYAFSSYWMNWVKQRPGKGLEWIGQIYPGDGDTYYSGKFKGRATLSADKSKNTAYLQLNNLRAEDTAVYYCAREAIYYGNYVFTYWGQGTLVTVSS VL: DIVMTQSPSLLSASLGDRVTISCKSSQSLLNSSNQKNYLAWYQQKPGQSPKLLVYFASTRDSGVPDRFSGSGSGTDFTLTISSLEPEDFATYFCQQHYSTPLTFGAGTKLEIK |
